The series is described as follows: label from the status in PepcDB records.

With “IKKNVFNIFYLFLVLEELKGPVLYIVGTPIGNLEDITYRAIDVLKSVNVIFAEDTRVTSKLLSRYKINKKMISCNAVTENKKISLLLDYLAKGNSVAFVSDAGTPGLSDPGSLLVAAAFREGYKVCPIPGV”, the protein production result was “failed”. Consider “ILIQINPLDNVAIVVNDHGLEKQTVIEEYQLTLVDDVPQGHKVLLKALKKDEAIIRYGEIIGYANADLEAGRWVNESVTRMPEA”, for which the protein production result is “failed”. In the case of “IMDQDGRSMFADGSKVPFERTRLLLQRLAVPLRATPLRVTIVGHTSSGLMPERSDYNGWDLSSDRANSVRQILEREGLPGSHIFAVTGKADSQPLFPDDPSIAANRRVTITLMRESPALP”, the protein production entry is on record as “failed”. In the case of “INRRRDSKQMTEHNLSVVNTATLYIVPTPIGNLGDITQRAIEVLKSVDLIAAEDTRHTGKLLSHFGIASQTFALHDHNEQHKADLLISKLQQGLSIALVSDAGTPLISDPGYHLVNRCRQANVNVVPLPGA” it was “failed”. As for “IPGPGFTAGAQGSCSLRCGAQDGLCSCHPTCSGLGTCCEDFLDYCLEILPSSGSMMGGKDFVVQHLKWTDP”, the protein production entry was “not failed”. In the case of “IQNVLSYITEHFSEGMSLKTLGNDFHINAVYLGQLFQKEMGEHFTDYLNRYRVNYAKEELLQTKDNLTIIAGKSGYTDMAYFYRQFKKHTGETPNRYRKIHQ” it was “failed”; in that of “IRQRKRAERALNDQLEFMRVLIDGTPNPIYVRDKEGRMLLCNDAYLDTFGVTADAVLGKTIPEANVVGDPALAREMHEFLLTRMAAEREPRFEDRDVTLHGRTRHVYQWTVPYGDSLGELKGIIGGWIDIT”, “failed”; in that of “IRSIWENNGFGLMSSKTMTDFDYWISDFEKIGASQKEAEQLIVKAIEIAIDANARNYNYINAILKDWEQRGFKSVEEREAARKQKKTTKKQKSNTGHSDYDDLGF”, “not failed”.

Take “IRTHLNLPSDKKVIMYAPTWRDDEFVSKGKYLFELKIDLDNLYKELGDDYVILLRMHYLISNALDLSGYENFAIDVSNYNDVSELFLISDCLITDYSSVMFDYGILKRPQFFFAYDIDKYDKGLRGFYMNYMEDLPGPIYTEPYGLAKELKNLDKVQQQYQEKIDAFYDRFCSVDNGKASQYIGDLIHKDIKEQ”: the protein production result is listed as “failed”.

Take “ISCSDPNPLDSYTRVPFEKTETDDGNGDGDGDGAGGLFEKGNGTDSKPYMIMNATQIRNMRSVLKSGMKVYFQLGADIDMAGIDDWQSLNGSGDFPYEIDFDGDSHVIKNFKCSAGDYPSFFGVLCGDCRNVGFVNASVSSARQGIGIITGYLGLKDKGNGNKTGRIVNCYTTGEVIGSGAAGGIAGVLANSYDGQESYIKNCYSNATVSDRAASGGKAGGIAGRKVGVGGFIENCYAYGAVSATKGGVGGILGQIDKSCDIAIKNSAAWSNLTGVDASSTVGRIVGVSASLGSYENCYACESIVLKVNEKTITASDESSATGTTFHGVAKSAEELGNIIVAWNPNLWKKGTNGYPIFQWSE”: the protein production entry is given as “not failed”. In the case of “ISRRNQDMLLSVLDLEKMTVDDIMVPRSEIIGIDINDDWKSILRQLSHSPHGRIVLYRDSLDDAISMLRVREAWRLMSEKKEFTKETMLRAADEIYFVPEGTPLSTQLVKFQRNKKKVGLVVNEYGDIQGLVTVEDILEEIVGDFTTSMS” it was “not failed”; in that of “ISTVSGKVERLISFDIAKRWYLRDIAERMYTSESLIKKKLQDENTCFSKILLASRMSMARRLLELRQIPLHTIAEKCGYSSTSYFINTFRQYYGVTPHQFAQHSPGT”, “failed”; in that of “IYGLVQRCVIIQKDDNGFGLTVSGDNPVFVQSVKEDGAAMRAGVQTGDRIIKVNGTLVTHSNHLEVVKLIKSGSYVALTVQGRPPGSPQIPLADSEVEPSVIGHMSPIMTSPHSPGASGNMERITSPVLMGEENNVVHNQK”, “failed”. In the case of “KAPNLYMTDTTGTYRYLYDVQAKYTILFFWDSQCGHCQQETPKLYDWWLKNRAKGIQVYAANIERKDEEWLKFIRSKKIGGWLNVRDSKNHTDFKITYDIYATPVLYVLDKNKVIIAKRIGYENLDDFLVQYEKSLKTK” it was “not failed”. In the case of “KDADHIHHLIDQSLIAKGFQEILTNSLTKGAYNELLSKQEDAVPILNKLSEELAFMRPSLAFTGLETVAYNINRRQKNLKLFEWGKVYFKRGTKYNEYNRLSVFITGNQHAESWNTPSKTVDFFDMKAVVVQILEKLHIAVTQVQEIESNPLFSKGVIYKHAGKELVQFGYISQAALKATDVKQEVLFADFNADLLLELYSNKSKYKEIS” it was “not failed”. Regarding “KEAGSQIMKFEVQDASPTIATELNLVTGEQVYYIKRLRFIEDNAAQLEETWMSVARFPDLTVSHMQKSKFSYIENECGIKIIGTFETFSPTFPTPEIASILRISPRDPILKIQTQAVDSNSIPLDYSLLYSN”, the protein production entry was “failed”. In the case of “KEALEALVPVTIEVEVPFDLHRYVIGQKGSGIRKMMDEFEVNIHVPAPELQSDIIAITGLAANLDRAKAGLLERVKELQAEQEDRALRSFK” it was “not failed”; in that of “KESLQVTLYRDNHAWCPYCQKVWLWLEEKQIPYRIKKVTMFCYGEKEDWYKKLVPSGMLPALELDGRFYTESDDILIALEKAFGPLLWAMEDPLVLPLRKLERLLFRAWCNWLCYPAM”, “failed”. In the case of “KGKSFIWIKRQLDPKVAEEVKALGLENFVFEKELKRHYPMGNLFAHVIGFTDIDGKGQEGLELSLEDSLYGEDGAEVVLRDRQGNIVDSLDSPRNKAPQNGKDIILSLD” it was “failed”. In the case of “KGLDKWGIYVPESAAQSVKDAVFEAGAGAIGDYSQCSFEWQGTGQFLPHHNAQPVVGHPGQLERTEELRVEFVAPARLRTTLIDAIRAAHPYEEPAFDVVSMQSTQDLETAEGLGRVGTLPEPMRFGDFVQQVADALPETSWGIRAAGDPEQMVHTVAVSSGSGDSFLDAVAALGVDVYVTSDLRHHPADESRRAQGPLLIDTAHWASEFPWTYQVQELLAQEFAQLDVEVATLRTDPWNISAHPQLR” it was “not failed”. Turning to “KHLSLTPELYKYLLDISLREHPALAALRKETSTMELANMQVAPEQAQFMQMLIRLTRAKKVLELGTFTGYSALAMSLALPDDGQVITCDINEGWTKHAHPYWREAKQEHKIKLRLGPALDTLHSLLNEGGEHQFDFIFIDADKTNYLNYYELALKLVTPKGLIAIDNIFWDGKVIDPNDTSGQTREIKKLNQVIKNDSRVFVSLLAIADGMFLVQPI”, the protein production result is on record as “not failed”.

With “KIRSYTSIWSVEKVLYSINDFRLPFPITFTQMTWFVVSLFAVMILGNVPPLSMIEGAFLKYFGIPVAFTWFMSTKTFDGKKPYGFLKSVIAYALRPKLTYAGKKVTLGRNQPQEAITAVRSEFY”, the protein production result is “failed”. In the case of “KITRLTTYRLPPRWMFLKVETDEGVTGWGEPVIEGRARTVEAAVHELSDYLIGQDPSRINDLWQTMYRAGFYRGGPILMSAIAGIDQALWDIKGKVLGVPVYELLGGLVRDKMRTYSWVGGDRPADVIAGMKALQAGGFDHFKLNGCEEMGIIDTSRAVDAAVARVAEIRSAFGNTVEFGLDFHGRVSAPMAKVLIKELEPYRPLFIEEPVLAEQAETYARLAAHTHLPIAAGERMFSRFDFKRVLEAGGVSILQPDLSHAGGITECVKIAAMAEAYDVALAPHCPLGPIALAACLHVDFVSWNATLQEQSMGIHYNKGAELLDYVRNKADFALEGGYIRPPRLPGLGVDIDEALVIERSKEAPDWRNPVWRHADGSVAEW” it was “not failed”; in that of “KKISSTAVIELALDLATSLNTKDRFDRLLDTVRKTITCDAVALLSYHGDVLKPIALQGLSRDTLGRRFYVEEHPRFLALCQSKSPIRFAADSPLPDPYDGLLIDREGDLPVHSCMGLPLYYDDKLLGLLTIDSLTPHDFEDIDVRMLEVISAIAAATLNTAFLLDQLESRADHSQRVVAELTEEAWKRDGGE”, “failed”; in that of “KKPKHHVLSHDIIPASKPIAEKLQIQPESPVVELKRILYNDDQPLTFEVTHYPLDLFPGIDTFIADGVSMHDILKQQYKVVPTHNTKLLNVVYAQQEESKYLDCDIGDALFEIDKTAFTSNDQPIYCSLFLMHT”, “not failed”. In the case of “KKSKYMTPMQQKLNEVYEAVKNYTDKRGRRLSAIFLRLPSRSELPDYYLTIKKPMDMEKIRSHMMANKYQDIDSMVEDFVMMFNNACTYNEPESLIYKDALVLHKVLLETRRD” it was “not failed”; in that of “KLLAITSCPNGIAHTYMAAENLQKAADRLGVSIKVETQGGIGVENKLTEEEIREADAIIIAADRSVNKDRFIGKKLLSVGVQDGIRKPEELIQKALNGDIPVY”, “not failed”.

For the sequence “KQLGPHTYLVSGRMEIDDVNERFGLSLPESDDYLTVAGFILNSHQNIPQANEVVEIAPYTFTILRSSSTKIELVKMSIDD”, the protein production entry is reported as “not failed”. As to “KRFEFVGWGSRQLIEFLHSLGKDTSEMISRYDVSDTIAKYISKEGLLDPSNKKKVVCDKRLVLLFGTRTIFRMKVYDLLEKHYKENQD”, the protein production entry is given as “not failed”. In the case of “KRPGNILIGTLPVGLDFPTRIVAEIVDAPSLTIEEIMRKAKYYLREGADIIDIGMESGKTNVEFLESVLPEIKEKINAPLSLDTLNPKEIEAGEKEVDLILSVDFGTVEEILPSKPVVLIPTNMKEGKFIEDPIGRAKALEKLKEKALNLGYKGLILDPILEHYPNFSRSLVAFYLYRMRNPQDILLAGVGNITEMMDADSVGLNALLASIAGELKISLLLTTEVSPKATGSVRELKRGIDMVLL” it was “failed”. In the case of “KRSHLENALNYALENSETAYNEMFLECDKQFILESWLNDFDLTKDYNETMHLVFSIKDKPDEETMQGLLHSTWESLKIRLPEYKFALVPHAHQDHAHIHCFINKTNQLTRRRLRFKGHEDCKEFFNELRSEFAYRLNDHLLSEEYLYVNEPKLKELDNIKQQLQDLEKEEKALEQIKSPQDEWDLNKALQSEYLQELKYKNKAKALDIQNNHSTPLKQKISEFKIALFNHKDTSDDEKEQLDIDRIDKRKPVSEHLKNTNKHELYELLGFYQKELDKKQNHSAFKNFAILNGLDRDFERETNGYSVLKKKEMLLNKLEHLDKRLLDKNSHLLLAQ” it was “failed”; in that of “KRVFGFVSAKGGDGGSCIAANFAFALSQEPDIHVLAVDISLPFGDLDMYLSGNTHSQDLADISNASDRLDKSLLDTMVQHISPSLDLIPSPATFEKIVNIEPERVSDLIHIAASFYDYIIVDFGASIDHVGVWVLEHLDELCIVTTPSLQSLRRAGQLLKLCKEFEKPISRIEIILNRADTNSRITSDEIEKVIGRPISKRIPQDEDAMQESLLSGQSVLKVAPKSQLSKTIVDWALHLNGV”, “not failed”; in that of “KSAVTAQSILEKADEIRFPQDSFQVNVAIRTAAPDHAEDLYRYQVLSKGNENSIVMITEPASERGQAILMKGRDLWVFMPSVSQPIRLSLSQRLTGQVANGDIARANFTGDYHPQLLRNESIDDEDYYVLELTGIDRSVTYQKVLLWVNQSNFRPYKAEFYSVSGRLLKTSRYENFDNILGEMRPTRIIMEDALKSGEVSVLDYSDMKLRDLPDKIFTKDYLKRLE”, “not failed”. For the sequence “KVDPSDFSDVLIAHTVMKPFPDAPTALYQIKAKGYETVLMTNHSRDLIQSNVINLDHEFDMIITAEDVQTYKPNQKFFDYVNDQLGNDVEKHVHVAVDEVKDLKPAQDAGWNVIKIDRKSEDAS”, the protein production entry is “failed”. For the sequence “KWIFREPSRTDGDDVYALITECPPLDINSSYCNFLQATHFSKTCVLAEKDGDLAGFISGYQEPDEPNTLFIWQVAVSPRYRGKGLAFSMLTTLLERKNLLHIEFIETTITKANNASWSLFKKIDAQYGNQGQVTTFLDKESHFKGKHDTEYLYRIPL”, the protein production entry is on record as “failed”.
